Measurements reported in the nanobody polyreactivity screen of Harvey et al. (2022).

Test: yeast display, Sf9 membrane polyspecificity reagent, FACS + sequencing; frameworks hold sequencing errors
How it was run: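 Nanobodies from a synthetic yeast display library (Saccharomyces cerevisiae BJ5465), induced 36–48 hours with galactose, were stained 1 hour at 4 °C with 10% biotinylated, detergent-solubilized Sf9 membrane reagent, enriched on streptavidin microbeads, then FACS-sorted. Anti-HA (expression) and streptavidin (reagent binding) fluorescence set low and high (top ~1%) gates. Polyreactivity labels come from the gate of origin. Genes were colony-PCR amplified, MiSeq 2 × 250 sequenced and filtered by CDR length.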

QVQLVESGGGLVQAGGSLRLSCAASGSTFPRNAMGWYRQAPGKERELVAAITSGGSTYYADSVKGRFTISRDNAKNTVYLQMNSLKPEDTAVYYCAKSRSSYPYRTYYYWGQGTQVTVSS
polyreactivity (PSR sort gate): low polyreactivity

QVQLVESGGGLVQAGGSLRLSCAASGSTFYTNAMGWYRQAPGKERELVAAINRSGGRSYYADSVKGRFTISRDNAKNTVYLQMNSLKQEDTAVYYCAARYPLRISTDTARDYYWGQGTQVTVSS
polyreactivity (PSR sort gate): low polyreactivity

QVQLGESGGGLVQAGGSLRLICAASGFTFYDYAMGWYRQEPGKETEFVAAITRSGSSTYYADSVKGRFTISRDNAKNTVYLQMNSLKPEDTAVYYCAVGPFRRRGHYPTYYRYGYWGQGTQVTVSS
polyreactivity (PSR sort gate): high polyreactivity

QVQLVESGGGLVQAGGSLRLSCAASGLTFWANTMGWYRQAPGKERELVAAITWSGGSTYYADSVKGRFTISRDNAKNTFYLQMNSLKPEDNAVYYCAAEEFFSAGYSYYYWGQGTQVTVSS
polyreactivity (PSR sort gate): low polyreactivity

QVQLVEAGGGLVQAGGSLRLSCAASGRILRYYTMGWYRPAPGKERELVAAISRRGTSTHYADSVKGRFTISRDHAKNTVYLQMNSLKPEDTAVYYCAADPSVWSDYYYWGQGTQVTVSS
polyreactivity (PSR sort gate): high polyreactivity

QVQLVESGGGLDQAGGSLRLSCAASGRTFKPYAMGWYRQAPGKERELVARISGSGGSTYYADSVKGRFSISRDNAKNTVYLQMNSLKPEDTAVYYCATTPYYWFDYWGQGTQVTVSS
polyreactivity (PSR sort gate): low polyreactivity

QVQLVESGGGLVQAGGSLRLSCAASGRISRVYAMGWYRQAPGKERELVASITGRGGSTYYADSVKGRFTISRDNAKNTVYLQMNSLKPEDTAVYYCAALIDVITGQYDYWGQGTQVTVSS
polyreactivity (PSR sort gate): high polyreactivity

QVQLVESGGGLVQAGGSLRLSCAASGFTFDNYAMGWYRQAPGKERELVAAINWSGGRTYYADSVKGRFTISRDNAKNTVYLQMNSLKPEDTAVYYCAVPGYVRMDYWGQGTQVTVSS
polyreactivity (PSR sort gate): high polyreactivity

QVQLVESGGGLVQAGGSLRLSCAASGSTFVYYAMGWYRQAPGKEREFVATIYRGDNTNYADSVKGRFTISRDNAKNTVYLQMNSLKPEDTAVYYCAADEPKWDLGGGTYLRDYWGLGTQVTVSS
polyreactivity (PSR sort gate): low polyreactivity

QVQLVESGGGLVQAGGSLRLSCDASGNTFHTNAMGWYRQAPGKERELVAAITGGGSTYYADSVKGRFTISRDNAKKTVYLQMNSLKPEDTAVYYCNTDVPYGLDVSDTIDYFYWGQGTKVTVSS
polyreactivity (PSR sort gate): low polyreactivity

QVQLVESGGGLVQAGGSLRLSCAASGFTFWRYAMGWYRQAPGKEREFVAVISISSGTTYADSVKGRFTITRDNAKNTVYLQMNSLKPEDTAVYYCAAAIGVYYIEYRYLGTVEYWGQGTQVTVSS
polyreactivity (PSR sort gate): low polyreactivity

QVQLVESGGGLVQAGGSLRLSCAASGSTFSSYAMGWYRPAPGKERELVARISSSGGRTSYADSVKGRFTISRDHAKNTVYLQMNSLKAEDTAVSYCAAEDQYYRYFFSYEYWGQGTQVTVSS
polyreactivity (PSR sort gate): high polyreactivity

QVQLVESGGGLVQAGGSLRLSCAASGSIYWRYAMGWYRQAPGKEMELVASITSGGGSTYYADSVKGRFTISRDNAKNTVYLQMNSLKPEDTAVYYCAAERYYSEAIFRSYDYWGQGTQVTLSS
polyreactivity (PSR sort gate): low polyreactivity

QVQLVESGGGLVQAGGSLRLRCAASGRIFVHYVMVWSRQAPGKEREFVAAITIGSTYADSVKGRFTISRDNAKNTVYLQMNSLKPEDTAVYYCNARWVVNVRTQGSPPYKYDYWGQGSQVTVSS
polyreactivity (PSR sort gate): low polyreactivity

QVQLVESGGGLVEAGGSLRLSCAASGRIFTGYAMGWYRQAPGKERELVAAISDGGSTNYADSVKGRFTISRDNAKNTVYLQMNSLKPEDTAVYYCAADGHSSDQYDYWGPGTQVTVSS
polyreactivity (PSR sort gate): low polyreactivity

QVKLVESGGGLVQAGGSLSLSCDASGNTFVRNVMGSYRQEPGKERELLAAIRSGTRTYYADSVKGRFTISRDNAKNTVYLQINSLKPEDTAVYYCATYRTYNSYRYDYWGQGTQVTVSS
polyreactivity (PSR sort gate): high polyreactivity

QVQLVESGGGLVQAGGSLRLSCAASGFTFSRNDMGWYRQAPGKERELLASITTSGGGTYYADSVKGRFTISRDNAKNTVYLQMNSLKPEDTAVYYCAKDWFPWAGYYDFGYWGQGTQVTVSS
polyreactivity (PSR sort gate): low polyreactivity

QVQLVESGGGLVQAGGSLRLSCAASGRIFPFYTMGWYRQAPGKERELVAAIRNAGSTKYADSVKGRFTISRDNAKNTVYLQMNSLKPEDTAVYYCNADLTRYRRYYWGQGTQVTVSS
polyreactivity (PSR sort gate): low polyreactivity

QVQLVESGGGLVQAGGSLRLSCAASGSTFVYYAMGWYRPAPGKERELVAAISKRGGSTYYADSVKGRFTISRDNAKNTVYLQMNSLKPEDTAVYHCAADQARGRYTLDYWGQGTQVTVSS
polyreactivity (PSR sort gate): high polyreactivity

QVQLVESGGGLVQAGGSLRLSCAASGSIFGWYAMGWYRQAPGTERELVAAIRRGGSTNYADSVKGRFTISRDNAKNTVYLQMNSLKPEDTAVYYCAAGKSGYSKRIFRYSFDYWGQGTQVTVSS
polyreactivity (PSR sort gate): high polyreactivity

QVQLVESGGGLVQAGGSLRLSCAASGSIFRYYDMGWYRQAPGKERELVAAISWSGGTTYYADSVKGRFTISRDNAKNTVYLQMNSLKPEDTAVYYCNRVRYPSYDYWGQGTQVTVSS
polyreactivity (PSR sort gate): high polyreactivity

QVQLVESGGGLVQAGGSLRLSCAASGSISRYYAMGWYRQAPRKERELVAAISSNGGSTYYADSVKGRFTISRDNAKNSVYLQMYSLKPEDTAVYYCNAFYVGYIRYWTNKLVDYWGQGTQVTVSS
polyreactivity (PSR sort gate): high polyreactivity

QDQLVESGGGLVQAGGSLRVSCAASGSIFAWYAMGWYRQAPGKDRELVAVITRGGSTNYADSVKGRFTISRDNAKKTVYLQMNSLKPEDTAVYYCAAGSYYSWYPFDYWGQGTQVTVSS
polyreactivity (PSR sort gate): low polyreactivity

QVQLVESGGGLVQAGGSLRLSCAASGFIFFGYAMGWYRQAPGKERELVAAITSGGSTYYADSVKGRFTISRDNAKNTVYLQMNSLKPEDTAVYYCAASRVRYSYGYPYYYWGQGTQVTVSS
polyreactivity (PSR sort gate): high polyreactivity

QVQLVESGGGLVQAGGSLRLSCAASGSTFIANDMGWYRQAPGKERELVAAISWSGGSTYADSVKGRFTISRDNAKNTVYLQMNSLKPEDTAVYYCAADWQVVWDYNYWGQGTQVTVSS
polyreactivity (PSR sort gate): low polyreactivity

QVQLVESGGGLVQAGGSLRLSCAASGRTFPSYTMGWYRQAPGKERELVAAITWTGGSTYYADSVKGRFTISRDNAKNSVYLQMNCLKPEDTAVYYCADDDYWGQGTQVTVSS
polyreactivity (PSR sort gate): low polyreactivity

QVQLVESGGGLVQAGGSLRLICAASGRTFVYNTMGWYRQAPGKERELVAAITDRGTSTYYADSVKGRFTISRDNAKNPVYLLLNSLNPEDTAVYYWAKDWLVTEFDYWGQGTQVTVSS
polyreactivity (PSR sort gate): low polyreactivity

QVQLVESGGGLVQAGGSLRLSCAASGSTFYYNVMGWYRQAPGKERELVAAISNAGTTNYADSVKGRFTISRDNAKNTVYLQMNSLKPEDTAVYYCNAEFIGPEGYWWYIEYYYWGQGTQVTVSS
polyreactivity (PSR sort gate): low polyreactivity

QVQLVESGGGLVQAGGSLRLSSAASGFIFGGYSMGWYRQAPGKERELVAAISRSGGSTYYADSVKGRFTISRDNPKNTVYLQMNSLKPEDTAVYYCNAVPRRQGFNYWGHGTQVTVSS
polyreactivity (PSR sort gate): high polyreactivity

QDQLVESGGGLVQAGGSLRLICAASGRILTSYAMGWYRQAPGKERELVAAISGSSASTYYADSVKGRFTISRDNAKNTVYLQMNSLKPEDTAVYYCAAYKYDYRVDTGYDYWGQGTQVTVSS
polyreactivity (PSR sort gate): low polyreactivity

QVQLVESGGGLVQAGGSLRLSCAASGRTFNTNAMGWYRQAPGKERELVAAISRRSGSTYYADSVKGRFTISRDNAKNTVYLQMNSLKPEDTGVYYCARTAVRKYPYEYWGQGPQVTVSS
polyreactivity (PSR sort gate): high polyreactivity

QVQLVESGRGLVQAGGSLRLSCAASGGTFGWYAMGWYRQAPGKERELVAAISQGGGSTYYADSVKGRFTISRDNAKNTVYLQMNSLKPEDTAVYYCAAYLGRAKGYEYWGQGTQVTVSS
polyreactivity (PSR sort gate): high polyreactivity
